The record followed here is paper PMC8864007, “Evaluation of an ^131I-labeled HER2-specific single domain antibody fragment for the radiopharmaceutical therapy of HER2-expressing cancers” (Scientific Reports, 2022).

Where “and” joins values, the source holds several entries; their conditions need not be identical. Equal entries are not always repeated.

The target in experiment [1] is T1, HER2-Fc protein (Homo sapiens, UniProt P04626).
T1 construct: human epidermal growth factor receptor type 2 (HER2), fused to Fc; Probably the extracellular domain of HER2; The source may stand in Supplementary Methods
Briefly: SPR; Biacore 3000 System; binding to HER2-Fc protein; which partner was immobilised is not stated. The following applies: both partners purified. (In general: In SPR one partner is held on a chip, and binding of the other changes the refractive index at the surface.)

In experiment [2] the target is T2, murine HER2 (Mus musculus, UniProt P70424).
T2 construct: murine HER2
T2 sequence (P70424 23-1256): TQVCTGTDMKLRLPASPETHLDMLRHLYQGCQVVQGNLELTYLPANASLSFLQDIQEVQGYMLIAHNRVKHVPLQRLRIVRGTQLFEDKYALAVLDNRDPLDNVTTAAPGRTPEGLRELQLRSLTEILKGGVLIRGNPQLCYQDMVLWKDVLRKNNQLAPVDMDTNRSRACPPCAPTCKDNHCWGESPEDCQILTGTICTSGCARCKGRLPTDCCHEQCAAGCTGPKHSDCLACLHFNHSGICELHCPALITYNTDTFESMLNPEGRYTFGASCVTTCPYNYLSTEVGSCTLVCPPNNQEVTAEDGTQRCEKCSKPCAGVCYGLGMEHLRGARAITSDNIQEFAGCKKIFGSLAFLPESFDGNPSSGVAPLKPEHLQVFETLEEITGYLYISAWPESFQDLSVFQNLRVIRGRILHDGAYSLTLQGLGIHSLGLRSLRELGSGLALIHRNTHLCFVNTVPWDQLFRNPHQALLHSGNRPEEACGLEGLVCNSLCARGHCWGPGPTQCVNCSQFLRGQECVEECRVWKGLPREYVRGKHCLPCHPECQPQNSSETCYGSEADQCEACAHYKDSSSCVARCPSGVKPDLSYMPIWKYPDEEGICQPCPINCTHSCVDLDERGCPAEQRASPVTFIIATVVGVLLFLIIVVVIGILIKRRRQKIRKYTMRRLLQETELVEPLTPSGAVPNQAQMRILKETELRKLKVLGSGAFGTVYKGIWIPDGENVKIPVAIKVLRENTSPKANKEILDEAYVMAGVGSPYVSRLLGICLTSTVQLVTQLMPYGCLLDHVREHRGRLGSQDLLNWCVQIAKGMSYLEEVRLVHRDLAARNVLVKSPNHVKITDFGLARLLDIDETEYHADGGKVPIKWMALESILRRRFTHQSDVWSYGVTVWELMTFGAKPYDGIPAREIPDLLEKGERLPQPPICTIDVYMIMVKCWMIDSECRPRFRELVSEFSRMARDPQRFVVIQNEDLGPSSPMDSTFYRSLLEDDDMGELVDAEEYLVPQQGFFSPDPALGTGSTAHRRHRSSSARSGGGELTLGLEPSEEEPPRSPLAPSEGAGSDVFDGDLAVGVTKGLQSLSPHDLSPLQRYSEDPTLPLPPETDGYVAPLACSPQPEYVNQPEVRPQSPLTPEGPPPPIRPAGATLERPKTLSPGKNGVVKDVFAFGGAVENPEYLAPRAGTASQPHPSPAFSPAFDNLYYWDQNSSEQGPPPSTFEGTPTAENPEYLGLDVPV
Briefly: ELISA; affinity, specificity and species cross-reactivity by ELISA; details in Supplementary Materials.

In experiment [3] the target is T3, human epidermal growth factor receptor type 2 (HER2) on HER2-expressing carcinoma cells (Homo sapiens, endogenous on SKOV-3 cells, UniProt P04626).
T3 construct: human epidermal growth factor receptor type 2 (HER2), endogenous on SKOV-3 and BT474 cells; The assay tells which cell line was used; also called HER2 receptor; source: endogenous, on SKOV-3 human ovarian carcinoma cells and on BT474 human breast carcinoma cells
Briefly: radioligand binding; cell-based affinity assay on HER2-expressing SKOV-3 cells; nonspecific binding measured with a 100-fold molar excess of trastuzumab; three therapy-level batches. The following applies: one partner purified.

As a reminder, the Kd is the concentration at which binding is half-saturated. The low end stands for a tighter complex, the high end for a looser complex.

B1: VHH_1028 (VHH)
VHH: EVQLVESGGGLVQAGGSLRLSCAASGITFSINTMGWYRQAPGKQRELVALISSIGDTYYADSVRGRFTISRDNAKNTVYLQMNSLKPEDTAVYYCKRFRTAAQGTDYWGQGTQVTVSS
notes: Measured mass 12,844.0 Da (theoretical 12,844.2 Da); Engineered to have no lysine in its CDR regions; also called anti-HER2 VHH_1028; sdAb VHH_1028; source: developed and provided by Cereius, Inc; production and purification in Supplementary Materials
For B1, the Kd in experiment [1] was 0.21 nM. Further, the binding result in experiment [2] was “no binding”.

B2: iso-SGMIB-VHH_1028 (VHH)
VHH: EVQLVESGGGLVQAGGSLRLSCAASGITFSINTMGWYRQAPGKQRELVALISSIGDTYYADSVRGRFTISRDNAKNTVYLQMNSLKPEDTAVYYCKRFRTAAQGTDYWGQGTQVTVSS
notes: as the chain of m1; Measured mass 13,147.6 Da (calculated 13,146.4 Da); also called unlabeled iso-SGMIB-VHH_1028; 1:1 iso-SGMIB-VHH_1028 conjugate; source: VHH_1028 reacted with iso-SGMIB, 1:1 conjugate isolated by HIC-HPLC
With B2, the Kd in experiment [1] was found to be 0.21 nM.

B3: iso-[^131I]SGMIB-VHH_1028 (VHH)
VHH: EVQLVESGGGLVQAGGSLRLSCAASGITFSINTMGWYRQAPGKQRELVALISSIGDTYYADSVRGRFTISRDNAKNTVYLQMNSLKPEDTAVYYCKRFRTAAQGTDYWGQGTQVTVSS
notes: as the chain of m1; source: VHH_1028 conjugated with iso-[^131I]SGMIB, isolated by gel filtration (PD-10)
Turning to B3, the Kd in experiment [3] was 1.5 nM and 2.9 nM and 2.6 nM.
